A short description of this data set: yeast display, Sf9 membrane polyspecificity reagent, FACS + sequencing; frameworks hold sequencing errors. The procedure, abridged: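 A synthetic nanobody library was expressed on Saccharomyces cerevisiae BJ5465 by galactose induction for 36–48 hours. The library was stained for 1 hour at 4 °C with 10% biotinylated, detergent-solubilized Sf9 membrane reagent and enriched with streptavidin microbeads before FACS. Low and high (top ~1%) gates were set on anti-HA fluorescence for expression and streptavidin fluorescence for reagent binding, and each polyreactivity label reflects the gate of origin.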
Turning to “QVQRVESAGGLVQAGGSLRLSCAASGSTFLYNAMGWYRQAPGKERELVAAISWSGGSTYYADSVKGRFTISRDNAKNTVYLQMNSLKPEDTAVYYCAKPRSWGYNWGQGTQVTVSS”, the “polyreactivity (PSR sort gate)” value is on record as “high polyreactivity”.

As to “QVQLVESGGGLVQAGGSLRLSCAASGITFRYYAMGWYRQAPGKERELVAAISSGSSTYYADSVKGRFTISRDNAKNTVYLQMNSLKPEDTAVYYCAARTYTTSRATTVYKRLNYWGQGTQVTVSS”, the “polyreactivity (PSR sort gate)” value is “high polyreactivity”.

Turning to “QVQLVESGGGLVQAGGSLRLSCAASGFTFDWNGMGWYRQAPGKEREFVAGITWSGTSTYADSVKGRFTISRDNAKNTVYLQMNSLKPEDTAVYYCAAVSSKGNRHEYDYWGQGTQVTVSS”, the “polyreactivity (PSR sort gate)” value is on record as “low polyreactivity”.

Turning to “QVQLVESGGGLVQEGGSLRLSCAASGLTFTGNAMGGYRQAPGKEREFVAAIRWSAGSTYYADSVKGRFTISRDNAKNTVYLQMNSLKPEDTAVYYCYAALIVSGHNPNDYWGQGTQVTGSS”, the “polyreactivity (PSR sort gate)” value is listed as “low polyreactivity”.

In the case of “QFQLVESGGGLVQAGGSLRLSCAPSGFIISSNAMGGYRQAPGKERELVAAISARGGSTYYADSVKRRFTISRDNAKNTVYLQMNSLKPEDTAVYYCNTDYKTTGDYWGEGTQVTVSS”, the “polyreactivity (PSR sort gate)” value is on record as “high polyreactivity”.

With “QVQLVESGGGLVQAGGRLRLSCAASGSTFTDYAMGWYRQAPRKERELVASITSGGRTNYADSVKGRFTITRDNAKNTVYLQMNSLKPEDTAVYYCAADYSVPTSQAYDYWGQGTQVTVSS”, the “polyreactivity (PSR sort gate)” value is on record as “low polyreactivity”.

Take “QVQLVESGGGLVQAGGSLRLSCAASGFTFTPYAMGWYRQAPGKERELVAAITSTGGSTYYADSVKGRFTISRHNAKNTVYLQMNSLKPEDAAVYYCNAATPYSWGYRRGYWGQGTQVTVSS”: the “polyreactivity (PSR sort gate)” value was “high polyreactivity”.

Take “QVQLVESGGGLVQAGGSLRLSCAASGRTFAEYAMGWYRQAPGKERELVAAISKRGGSTYYADSVKGRFTISRDNAKNTVYLQMNSLKPEDTAVYYCNKVNRVPSYGHEVGYWGQGTQVTVSS”: the “polyreactivity (PSR sort gate)” value is recorded as “high polyreactivity”.

In the case of “QVQHVESRGGLVQAGGSLRLSCAASGRIFPRYAMGWYRQAPGKERELVAAISWSGGSTYYADSVKGRFTISRDNAKNTVYLQMNSLKPEDTAVYYCAARGRLRYSGSIIYYWGQGTQVTVSS”, the “polyreactivity (PSR sort gate)” value is “high polyreactivity”.

With “QVQLVESGGGLVQAGGSLRLSCAASGSNFRYNAIGWYRQAPGKERELVAAISWSGGSTYYADSVKGRFTISRDNAKNTVYLQMNSLKPEDTAVYYCATRYYGIVPGRRYGYWGQGTQVTVSS”, the “polyreactivity (PSR sort gate)” value is “low polyreactivity”.

With “QVQLVESGGGLVQAGGSLRLSCASSGRTFPAYVMGWYREAPGKERDLVAAISRGGSTYYADSVKGRFTISRDNAKNTVYFQMNSLKPEDTAVFYCAARWSYSRYTGNDYSRLGKFYYWGQGTQVTVSS”, the “polyreactivity (PSR sort gate)” value is reported as “high polyreactivity”.

Regarding “QVQLVESGGGLVQAGGSLRLSCAASGFNFWRNAMGWYRQAPGKERELVAVITWSGGRTYYADSVKGRFTFSRDNAKNSVYLQMNSLKPEDSAVYYCSTEIVGPHFDYWGQGTQVTVSS”, the “polyreactivity (PSR sort gate)” value is “low polyreactivity”.

Consider “QVQLVESGGCLVQAQGSLRLSCAASGFTFGYNAMGWYRQAPGKERELVAVISSRGGRTYYADSVKGRFTISRDNAKNTVYLQMYSLKPEDTAVYYCAKRSGSYSYPAVGGWGLGYCGQGTQVTVSS”, for which the “polyreactivity (PSR sort gate)” value is recorded as “high polyreactivity”.

For the sequence “QVQLVESGGGLVQAGGSLRLSCAASGFIFTYNDMGWYRQAPGKERELVASISWDGGRTYYADSVKRRFTISRDNAKNTVYLQMNSLKPEDTADYYWDKRLGGSPIQARGDYWGQCTQVTVSS”, the “polyreactivity (PSR sort gate)” value is “low polyreactivity”.

As to “QVQLVESGGGLVQAGGSLRLSCAASGFTFASYAMGWYRQAPGKEREFVAAITRSGGSTYYADSVKGRFTISRDNAKNTVYLQMNSLKPEDTAVYYCNRVTSSEFDYWGQGTQVTVSS”, the “polyreactivity (PSR sort gate)” value is given as “high polyreactivity”.

As for “QVQLVESGGGLVQAGGSLRLSCAASGFTFTAYAMGWYRQAPGKERELVAAINWSGSRTYYADSVKGRFTISRDHAKNTVYLQMNSLKPEDTAVYYCNTATSKSSYRHYDYWGQGTQVTVSS”, the “polyreactivity (PSR sort gate)” value was “high polyreactivity”.

For the sequence “QVQLVESGGGLVQAGGSLRLICAASGYTFSFYAMGWYIQAPGKERELVAAISRSGGSTYYADSVKGRFTISRDNAKNTVYLQMNSLKPEYTAVYYCAARWPGAYHEYGYWGQGTQVTVSS”, the “polyreactivity (PSR sort gate)” value is “high polyreactivity”.

“QVQLVESGGGLVQAGGSLRLSCAASGSTFSYNAMGWYRQAPGKERELVASISTSGGSTYYADSVKGRFTISRDNAKNTVYLQMNSLKPEDTAVYYCNAPTSDMYSDFDYWGQGTQVTVSS”: the “polyreactivity (PSR sort gate)” value is reported as “low polyreactivity”.

Consider “QVQHVESGGGLVQAGGSLRLSCAASGSTFLVYAMGWYRQAPGKERELVAAISGAGSTTYADSVKGRFTISRDNAKNTVYLQMNSMKPEDTAVSYCNARTVAIWSERYYWGQGTQVTVSS”, for which the “polyreactivity (PSR sort gate)” value is “low polyreactivity”.

On to “QVQLVESGGGLVQAGGSLRLSCAASGRIFTNNAMGWYREAPGKERELVAAISKRGGSTYYADSVKGRFTISRDNAKNTVYLQMNSLKPEDTAVYYCNAREYIHWRGALGLFGSWGQGTQVTVSS”, for which the “polyreactivity (PSR sort gate)” value was “high polyreactivity”.

Take “QVQLVESGGGLVQAGGSLRLSCAASGSIFPIYAMGWYRQAPGKERELVAAINRSGGSTYYADSGKGRFTISRDHAKTTVYLQMNSLKPEETAVYDCNADYGYHNQLFRGYYGWSSDHWGQGTQVTVSS”: the “polyreactivity (PSR sort gate)” value is on record as “low polyreactivity”.

“QVQLVESGGGLVQAGGSLRLSCAASGFNFRYNTMGWYRKAPRKERELVAAISVSGARTYYADSVKGRFTISRDNAKNTVYLQMNSLKPEDTAVFYCNRRYTFYSRYNNDYWGQGTQVTVSS”: the “polyreactivity (PSR sort gate)” value is “high polyreactivity”.

“QVQLVESGGGLVQAGGSLRLSCAASGSTFVVYAMGWYRQATGKERELVAAISANVGGTYYADSVKGRFTISRDNAKNTVYLQMNSLKPEVTAVYYCAADYAYNYFWRPGDYWGQGTQVTVSS”: the “polyreactivity (PSR sort gate)” value is recorded as “low polyreactivity”.

For “QVQHVESGGGLVQAGGSLRLSCAASGSIIRGNCMGWYRQAPGKERELVAAISRSGGRTYYADSVKGRFTFSRDNAKNTVYLQMNSLKPEDTAVYYFAKDRSGSYYNFPEYDYWGQGTQVTVSS”, the “polyreactivity (PSR sort gate)” value is given as “high polyreactivity”.

With “QVQLVESGGGLVQAGGSLRLSCAASGRIYTYYTMGWYRQAPGKERELVAAITVRGGRTYYADSVKGRFTISRDNAKNTVYLQMNSLKPEDTAVYYCAARGLVRSYDYWGQVTQVTVSS”, the “polyreactivity (PSR sort gate)” value is listed as “high polyreactivity”.

For “QVQLVESGGRLVQAGGSLRLSCAASGSTFGVNTKGWYRQAPGKEREFVAAITYGGGGTYYADSVKGRFTISRDNAKNTVYLQMNSLKPEDTAVYYCAARRAPKYYWGQGTQVTVSS”, the “polyreactivity (PSR sort gate)” value is recorded as “high polyreactivity”.

Turning to “QVQLVESGGGLVQAGGSLRLSCAASGSIFHGNAMGWYRQAHGKERELVAVISDGGSTDYADSVKGRFTISRDNANNSVYLQMTSLKPEDTAVYYCNAAYDTQYFYRKHIYYLSGYDYWGQGTQVTVSS”, the “polyreactivity (PSR sort gate)” value is on record as “low polyreactivity”.

In the case of “QGQLVESGGGLVQAGGSLRLSCAPSGFIFKFYAMGWYRQAPGKESELVAAITSSGGSTNYADSVKGRFTISRDNAKNTVYLQMISLKPEDTAVSYCAAQFPGVYYYIYDYWGQGTQVTVSS”, the “polyreactivity (PSR sort gate)” value was “high polyreactivity”.

For the sequence “QVQLVESGGGLVQAGGSLRLSCAASGSIFPSNAMGWYRQAPGKERELVAGITRGGSTNYADSVKGRFTISRDNAKNTVYLQMNSLKPEDTAVYYCAADSGFDTAPYDYWGQGTQVTVSS”, the “polyreactivity (PSR sort gate)” value is listed as “low polyreactivity”.

Turning to “QVQLVESGGGLVQAGGSLRLSCAASGSTFQFYAMGWYRQAPGKEREFVAAITTRSGSTYYADSVKGRFTISRDNAKNTVYLQMNSLKPEDTAVYYCAAYIYGHSSDSVRYEYWGQGTQVTVSS”, the “polyreactivity (PSR sort gate)” value is given as “low polyreactivity”.

With “QVPLVESGGGLVQAGGSLRLSCAASGGIFGRYAMGWYRQAPGKERELVAALSARGGSSYYADSVKGRFTISRDNAKNTVYFQMNSLKPEDTAVYYCNALWVSYYTFRMDYWGQGTQVTVSS”, the “polyreactivity (PSR sort gate)” value is recorded as “high polyreactivity”.

Regarding “QVQLVESGGGLVQAGGSLRLSCAASGRIFSINAMGWYRQAPGKERELVAAITWSGGSTYYADSVKGRFTISRDNAKNTVYLQMNILKPEDTAVYYCAARLPWYIPTPSYRIAGGNYWGQGTQVTVSS”, the “polyreactivity (PSR sort gate)” value is recorded as “low polyreactivity”.

Regarding “QVQLVESGGGLVQAGGSLRLSCAASGRIFWWYAMGWYRQAPGKERELVAVIDDSGGITYYADSVKGRFTISRDKANNTVYLQMNSLNPEDTAVYYCARNVNAQKVLGGFDSWGQGTQVTVSS”, the “polyreactivity (PSR sort gate)” value is “low polyreactivity”.

On to “QVQLVESVGGLVQAGGSLRLSCAASGGIFWVYAMGWYRQAPGKERELVASISWNGGSTNYADSVKGLFTISRDNAKNTVYLQMNSLKPEDTAVYYCAAEYWTSYADYRYDYWGQGTQVTVSS”, for which the “polyreactivity (PSR sort gate)” value is “low polyreactivity”.

In the case of “QVQIVESGGGLVQAGGSLRLSCAASGNTISYYDMGWYRQAPGKERELVADISSGGSTYYADSLKGRFTISRDNAKNTVYLQMNSLKPEDTAVYYCNAVVYIRGTAGTYYYWGQGTQVTVSS”, the “polyreactivity (PSR sort gate)” value is recorded as “high polyreactivity”.

Consider “QVQLVESGGGLVQAGGSLRLSCAASGSTFTGYAMGWYRQAPGKEMELVAAISISGGRTVYADSVKGRFTISRDNAKNTVYLQMNSLKREDTAVYYCNARYTRYTLRYYYWGQGTQVTVSS”, for which the “polyreactivity (PSR sort gate)” value is given as “high polyreactivity”.

Turning to “QVQLVESGGGLVQAGGSLRLSCDASGRIFAYYARGWYRQAPGKERELVAAITTNGGGTYYADSVKGRFTISRDNAKNTVYLQMNSLKPEDTGVYYCNAVKQRSSIFDYWGQGTQVTVSS”, the “polyreactivity (PSR sort gate)” value is given as “low polyreactivity”.

Turning to “QVQLVESGGGLVQAGGSLRLSCAASGITFTGYAMGWYRQAPGKERELVAAISVSTVSTYYADSVKGRFTISRDNAKNTDYLQMTSLKPEDTAVYYCNADATDSYPEKDEHDSWGQGTQVTVSS”, the “polyreactivity (PSR sort gate)” value is given as “low polyreactivity”.

In the case of “QVQRVESGGGLVQAGGSLRLSCAASGFIFWRYAMGWYRQAPGKERELVATITSSGGTTHYADSVKGRFTISRDNAKNTVYLQMNSLKPEDTAVYYCAKALVVQYGRYTGHPYDYWGQGTQVTVSS”, the “polyreactivity (PSR sort gate)” value is “high polyreactivity”.

Take “QVQLVESGGGLVQAGGSLRLICAASGFISVRNAMGWYRQGPGKERELGAAISSGDTTDYADSVKGSFTISRDNAKNTVYLQMNSLKPEDTAVYYCAAVYYGRYYYWGQGTQVTVSS”: the “polyreactivity (PSR sort gate)” value is recorded as “low polyreactivity”.

The values are drawn from the nanobody polyreactivity screen of Harvey et al. (2022).
